Source: patent US20150285801

Test system: GST-topo I
Sequence (chain, as listed by the source): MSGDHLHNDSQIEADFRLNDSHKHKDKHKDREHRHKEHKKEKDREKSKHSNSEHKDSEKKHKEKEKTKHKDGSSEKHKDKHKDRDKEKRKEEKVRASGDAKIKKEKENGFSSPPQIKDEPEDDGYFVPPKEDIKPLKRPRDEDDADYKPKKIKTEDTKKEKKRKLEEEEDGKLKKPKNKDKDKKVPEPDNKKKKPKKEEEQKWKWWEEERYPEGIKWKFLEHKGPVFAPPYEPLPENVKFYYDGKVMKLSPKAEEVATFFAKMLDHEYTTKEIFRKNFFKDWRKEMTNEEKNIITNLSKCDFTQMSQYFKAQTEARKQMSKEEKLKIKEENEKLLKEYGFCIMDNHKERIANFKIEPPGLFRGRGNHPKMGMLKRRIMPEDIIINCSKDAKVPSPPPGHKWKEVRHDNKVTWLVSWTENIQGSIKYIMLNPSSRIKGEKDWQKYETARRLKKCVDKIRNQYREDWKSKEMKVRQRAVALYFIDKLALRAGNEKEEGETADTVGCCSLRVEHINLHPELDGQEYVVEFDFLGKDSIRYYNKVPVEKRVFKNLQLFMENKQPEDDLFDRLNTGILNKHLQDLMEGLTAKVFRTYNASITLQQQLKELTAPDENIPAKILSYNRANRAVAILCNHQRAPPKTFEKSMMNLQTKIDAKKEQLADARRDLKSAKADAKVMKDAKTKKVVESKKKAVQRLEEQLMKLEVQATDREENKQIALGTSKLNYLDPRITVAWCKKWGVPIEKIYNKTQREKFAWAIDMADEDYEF

BRCA1/BARD1 (E3)
in vitro ubiquitination, immunoblot with anti-ubiquitin: topo I is ubiquitinated by BRCA1
